Here are results for two substances from paper doi:10.1101/2020.04.27.064493.

pKd: −log10 of the molar value.

In this assay the target is human DNMT1 fragment (residues 351-1600) (human) (UniProt P26358). Description: ITC. A general note: ITC needs no label: the signal is the heat of the interaction.

For “H3_(1-24)K9me3Ub2: H3 (1-24) K9me3 K18C/K23C peptide carrying two ubiquitin(G76C) through dichloroacetone linkage (from UniProt P68431;P0CG48) (complex)”, the pKd (as a rule, the Kd on a negative log10 scale, so that one unit is a factor of ten) was 7.77. As for “H3_(1-24)Ub2: H3 (1-24) K18C/K23C peptide carrying two ubiquitin(G76C) through dichloroacetone linkage (from UniProt P68431;P0CG48) (complex)”, the pKd is 7.04. Compared with the last substance, the pKd is 0.73 log units lower.
